Measured values as given in the supplement of paper PMC10567573.

B1: DFFB (parent)
chain: KLNCDPSRIYKPQTRLKRKQPVRK

Variants of: B1
Experiment: protein stability index of a GFP-peptide fusion (GPS, HEK-293T) (PSI 1-6); higher = more stable
Details: c terminus: a fixed tail appended
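Further: lentivirally expressed fusions sorted by FACS into six bins by GFP to DsRed ratio, PSI derived from sequencing read proportions per bin multiplied by bin number.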

In order of rising protein stability index:
1. KLNCDPSRIYKPQTRLKRKQPYRK [V22Y]  2.22
2. KLNCDPSRIYKQQTRLKRKQPVRK [P12Q]  2.24
3. KLNCDPSRSYKPQTRLKRKQPVRK [I9S]  2.51
4. KLNCDPSRIYKPQTRLKRKQPVWK [R23W]  2.59
5. KLNCDPSRIYKPQTQLKRKQPVRK [R15Q]  2.67
6. KLNCDPSRIYKPQTLLKRKQPVRK [R15L]  2.69
7. KLNCDPSRIYKPQTRLKRKQPVRF [K24F]  2.7
8. KLNCDPSRIYKPQTRLKRKQDVRK [P21D]  2.71
9. KWNCDPSRIYKPQTRLKRKQPVRK [L2W]  2.73
10. KLNCIPSRIYKPQTRLKRKQPVRK [D5I]  2.74
11. KLNCDPSRIYKPQTRLKRKQKVRK [P21K]  2.75
12. KLNCDPSRIYKPQTRLKRKSPVRK [Q20S]  2.75
13. KLNCDPSRIYKPQTRFKRKQPVRK [L16F]  2.8
14. KLNCDPSRIYKLQTRLKRKQPVRK [P12L]  2.86
15. KLNCDPSLIYKPQTRLKRKQPVRK [R8L]  2.9
16. KLNCDPSRIYKPQTRLKRKYPVRK [Q20Y]  2.91
17. KLNCDPSRIYKPQTRDKRKQPVRK [L16D]  2.92
18. KLNCDPSVIYKPQTRLKRKQPVRK [R8V]  2.94
19. KLNCDPSRIYKPQTRCKRKQPVRK [L16C]  2.95
20. KLNCDPSRIYKPQTRLKRKQPVRI [K24I]  3.03
21. KLNCDPSRIYKPQTRLKYKQPVRK [R18Y]  3.05
22. KLNCDPSRIYKDQTRLKRKQPVRK [P12D]  3.09
23. KLNCDPSRIYKPQTRLKRKQPVRM [K24M]  3.11
24. KLNCDLSRIYKPQTRLKRKQPVRK [P6L]  3.12
25. KLNCDPSRIYKHQTRLKRKQPVRK [P12H]  3.13
26. KLNCDPSRIYKPQTRLKRKQIVRK [P21I]  3.16
27. KLNCDMSRIYKPQTRLKRKQPVRK [P6M]  3.16
28. KLNCDPSRIYKPQTRLKRKQPVRQ [K24Q]  3.18
29. KLNCDPSRIYKCQTRLKRKQPVRK [P12C]  3.21
30. KLNCDPSRIYKPQTRLKRKQPVRG [K24G]  3.23
31. KLNCDPSRIYKPQTFLKRKQPVRK [R15F]  3.25
32. KLNCDPSRIYKPQTRLKRKQPVVK [R23V]  3.25
33. KLNCDPSRIYKPQTRLKRKQPWRK [V22W]  3.26
34. KLNCDPSRIYKPQTRLKRKQEVRK [P21E]  3.28
35. KLNCDPSRIYKPQTRLKGKQPVRK [R18G]  3.28
36. KLNCDPSWIYKPQTRLKRKQPVRK [R8W]  3.29
37. KLNCDPSRMYKPQTRLKRKQPVRK [I9M]  3.3
38. KLNCDPSRHYKPQTRLKRKQPVRK [I9H]  3.31
39. KLNCDPSRIYKPQTRLKRKQPVRP [K24P]  3.32
40. KLNCDPSRIYKPQTRLKRKQPVEK [R23E]  3.34
41. KLNCDPSRIYKPQTRAKRKQPVRK [L16A]  3.34
42. KLNCDPSRIYKPQTRLKSKQPVRK [R18S]  3.37
43. KLNCDPSNIYKPQTRLKRKQPVRK [R8N]  3.38
44. KLNCDPSRIYKPQTRLKQKQPVRK [R18Q]  3.4
45. KLNCDPSRIYKPQTRLKRKQPCRK [V22C]  3.41
46. KLNCDPSRIYKPQTRLKCKQPVRK [R18C]  3.43
47. KLNCDPSRIYKPQTRLKRKQPVRN [K24N]  3.44
48. KLNCDGSRIYKPQTRLKRKQPVRK [P6G]  3.44
49. KLNCDPSRIYKPQTRLKRKQWVRK [P21W]  3.45
50. KLNCDPSRIYKAQTRLKRKQPVRK [P12A]  3.47
51. KLNCDPSRIYKPQTRLKRKQPFRK [V22F]  3.48
52. KLNCDPSRIYKPQTRLKRKQPVYK [R23Y]  3.48
53. KLNCDPSRIYKPQTVLKRKQPVRK [R15V]  3.49
54. KLNCDPSRIYKPQTRLKRKQPVSK [R23S]  3.49
55. KLNCDPSRVYKPQTRLKRKQPVRK [I9V]  3.52
56. KLNCDPSRIYKPQTRLKRKQPVIK [R23I]  3.53
57. KLNCDPSRIYKPQTRLKRKVPVRK [Q20V]  3.54
58. KCNCDPSRIYKPQTRLKRKQPVRK [L2C]  3.55
59. KYNCDPSRIYKPQTRLKRKQPVRK [L2Y]  3.55
60. KLNCDPSRIYKPQTRLKRKQPVRD [K24D]  3.56
61. KLNCDPSRIYKPQTGLKRKQPVRK [R15G]  3.58
62. KLNCDPSRIYKPQTHLKRKQPVRK [R15H]  3.59
63. KLNCDPSHIYKPQTRLKRKQPVRK [R8H]  3.61
64. KLNCDQSRIYKPQTRLKRKQPVRK [P6Q]  3.62
65. KLNCDPSRIYKPQTRLKLKQPVRK [R18L]  3.62
66. KLNCDPSDIYKPQTRLKRKQPVRK [R8D]  3.63
67. KLNCDPSCIYKPQTRLKRKQPVRK [R8C]  3.63
68. KLNCDPSRIYKPQTRLKRKQPTRK [V22T]  3.64
69. KLNCDPSRIYKPQTRLKRKNPVRK [Q20N]  3.66
70. KLNCDPSRIYKPQTRLKRKQPDRK [V22D]  3.67
71. KLNCDPSRIYKPQTRLKRKIPVRK [Q20I]  3.69
72. KLNCDPSRIYKTQTRLKRKQPVRK [P12T]  3.69
73. KLNCDPSRIYKPQTRLKRKQPIRK [V22I]  3.78
74. KLNCDPSRLYKPQTRLKRKQPVRK [I9L]  3.81
75. KLNCDPSRIYKPQTRNKRKQPVRK [L16N]  3.85
76. KLNCDPSRIYKPQTRLKRKQPPRK [V22P]  3.87
77. KLNCDPSRIYKSQTRLKRKQPVRK [P12S]  3.89
78. KLNCDPSRIYKPQTRLKRKQPVQK [R23Q]  3.9
79. KLNCDPSRIYKPQTRLKRKQYVRK [P21Y]  3.91
80. KLNCDPSRIYKPQTRLKRKQPVRR [K24R]  3.96
81. KLNCDPSRIYKPQTRLKRKQPVRE [K24E]  3.99
82. KLNCDPSKIYKPQTRLKRKQPVRK [R8K]  4
83. KLNCDPSRCYKPQTRLKRKQPVRK [I9C]  4.01
84. KLNCDPSRNYKPQTRLKRKQPVRK [I9N]  4.01
85. KLNCDPSRIYKPQTRLKRKQPVRS [K24S]  4.02
86. KLNCDPSRIYKPQTRLKRKQPVRT [K24T]  4.04
87. KLNCDDSRIYKPQTRLKRKQPVRK [P6D]  4.05
88. KLNCDPSRIYKPQTRLKRKQAVRK [P21A]  4.07
89. KMNCDPSRIYKPQTRLKRKQPVRK [L2M]  4.09
90. KQNCDPSRIYKPQTRLKRKQPVRK [L2Q]  4.16
91. KLNCDPSRIYKPQTRLKRKGPVRK [Q20G]  4.19
92. KLNCDPSEIYKPQTRLKRKQPVRK [R8E]  4.21
93. KNNCDPSRIYKPQTRLKRKQPVRK [L2N]  4.5
94. KGNCDPSRIYKPQTRLKRKQPVRK [L2G]  4.94
